Test results reported in paper PMC10921949, “Multivalent coiled-coil interactions enable full-scale centrosome assembly and strength” (The Journal of Cell Biology, 2024).

B1: SPD-5(541–677) (domain or fragment, C. elegans, UniProt P91349 541-677, looked up)
chain: SQSHIPILHDMQQILDSSAMFLEGQHDVAVNVEQMQEKMSQIREALARLFERLKSSAALFEEILERMGSSDPNADKIKKMKLAFETSINDKLNVSAILEAAEKDLHNMSLNFSILEKSIVSQAAEASRRFTIAPDAE
notes: Used alone and after incubation with kinase-dead PLK-1 (unphosphorylated); also called helical hairpin; source: Arctic Express bacteria, purified (Ni-NTA, Superdex 75 size exclusion)
B2: SPD-5(541–677) R592K (domain or fragment, C. elegans, UniProt P91349 541-677, looked up)
chain: SQSHIPILHDMQQILDSSAMFLEGQHDVAVNVEQMQEKMSQIREALARLFEKLKSSAALFEEILERMGSSDPNADKIKKMKLAFETSINDKLNVSAILEAAEKDLHNMSLNFSILEKSIVSQAAEASRRFTIAPDAE
notes: source: purified
B3: SPD-5(541–677) phosphorylated by PLK-1(CA) (domain or fragment, C. elegans, UniProt P91349 541-677, looked up)
chain: SQSHIPILHDMQQILDSSAMFLEGQHDVAVNVEQMQEKMSQIREALARLFERLKSSAALFEEILERMGSSDPNADKIKKMKLAFETSINDKLNVSAILEAAEKDLHNMSLNFSILEKSIVSQAAEASRRFTIAPDAE
modifications: phosphorylated by PLK-1 (verified by gel migration shift and MS); sites of this sample not listed in the text
notes: also called phosphorylated hairpin; source: Arctic Express bacteria, purified (Ni-NTA, Superdex 75 size exclusion); then incubated with PLK-1(CA)

Target: the molecule itself
Experiment: mass photometry; 50 nM SPD-5(541–677) in PBS on a glass coverslip (TwoMP, Refeyn), alone or after 20 min with 20 nM PLK-1(KD) or PLK-1(CA); dimers seen down to 10 nM

Stoichiometry N, 2:
B1
B2
B3
